Data reported in patent publication US11583589B2, “Cell membrane penetrating conjugates” (priority 2017, dated 2023).

Test system: HeLa cells
Test: Cellular uptake of NHS-coumarin labelled proteins, fluorescence microscopy
Format: cell-based
Experimental: Labelling of proteins with fluorescent dyes—Fluorescent dyes were considered as an example of a functional molecule for investigating the cell membrane penetration ability of the conjugate. Labelling of the recombinant protein with a dye was carried out by performing a series of reaction in dark conditions. The protein to be labelled was collected in PBS buffer (1× and pH 7.3) and the dye was collected at two to three times higher concentration to that of the protein. The protein was added to 0.1M sodium carbonate buffer (pH 8.5) followed by the dye. The dye was added very slowly (30 μl each time) to the buffer containing the protein kept on ice accompanied by occasional shaking. The resulting solution was wrapped with aluminium foil to keep away any light. The solution was stirred for 1 hour at room temperature and was then purified by gel filtration, i.e. passed through a desalting column or a PD 10 column with 1×PBS buffer. […]
Cellular uptake of labelled proteins—The uptake of labelled proteins was checked by treating mammalian cells with different labelled proteins such as AlbG (SEQ ID NO: 1), EfsQNR (SEQ ID NO: 2) and, as a comparative example, TtCuA (SEQ ID NO: 13). […] The cells were then washed twice, after 3 hours and 24 hours with HBSS (Hanks […] salt solution) or PBS and observed under fluorescence microscopy and/or confocal laser scanning microscope. […]

B1: TtCuA-NHSC: comparative example: TtCuA protein (SEQ ID NO: 13, Thermus thermophilus) labelled with NHS-coumarin dye (conjugate)
chain: AYTLATHTAGVIPAGKLERVDPTTVRQEGPWADPAQAVVQTGPNQYTVYVLAFAFGYQPNPIEVPQGAEIVFKITSPDVIHGFHVEGTNINVEVLPGEVSTVRYTFKRPGEYRIICNQYCGLGHQNMFGTIVVKE
modifications: NHS-coumarin dye label; Amino acid sequence of TtCuA protein
NHS-C labelled protein, Hoechst Blue co-stain
  fluorescence inside the cells (presence of conjugate inside the cells): significantly less fluorescence
NHS-C labelled proteins
  cell penetration ability (cell uptake), compared between conjugates: not able to effectively penetrate the cell membrane
